Changes are numbered by the printed parent chain.

The target of assay [1] is T1, HIS6-mouse C5aR-HV1B1-GAG (mouse).
T1 construct: negative control; also called murine C5aR on VLPs; mouse C5aR expressed on virus-like-particles
Kind of assay: ELISA on coated VLPs, IgG titration.

The target in assay [2] is T2, human C5aR_NT-bio peptide (human, biotin tag (position not given)).
T2 construct: Chemically synthesized linear peptide (Genscript); also called human C5aR N-terminal peptide; human C5aR peptide
T2 peptide: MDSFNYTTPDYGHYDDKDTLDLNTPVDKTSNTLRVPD
Briefly: BLI (Octet), apparent (bivalent).

Assay [3] has as its target T3, full length cynomolgus C5aR stably expressed on CHO Flp-In cells (cynomolgus monkey (Macaca fascicularis)).
T3 chain: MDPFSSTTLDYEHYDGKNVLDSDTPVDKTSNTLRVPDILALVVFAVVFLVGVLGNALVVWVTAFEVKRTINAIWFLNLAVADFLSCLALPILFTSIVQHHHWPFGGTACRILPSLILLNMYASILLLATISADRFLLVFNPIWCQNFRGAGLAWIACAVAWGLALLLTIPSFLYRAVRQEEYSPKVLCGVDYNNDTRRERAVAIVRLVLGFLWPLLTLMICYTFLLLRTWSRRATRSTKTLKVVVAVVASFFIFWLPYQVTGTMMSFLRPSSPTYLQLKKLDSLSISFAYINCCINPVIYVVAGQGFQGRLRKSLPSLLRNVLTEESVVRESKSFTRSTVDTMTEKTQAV
Kind of assay: KinExA on Flp-In CHO cells.
Description: (§1) Apparent KD determination on C5aR-expressing cells was performed at RT with a KinExA® 3200 instrument (Sapidyne Instruments). PBS (Gibco), supplemented with BSA (1 mg/mL) and 0.02% (v/v) NaN₃ was used as assay buffer. […] After equilibration, the samples were centrifuged and the supernatants were used for analysis. […] The apparent KD was obtained using KinExA® software and by “n-curve analysis,” which fits all of the given curves to a single KD value simultaneously.

Assay [4] deals with T4, Cynomolgus FcRn p51 [1-297]_AviHis/p14 biotinylated (cynomolgus monkey, UniProt Q8SPV9 24-298; Q6T672 21-119, biotinylated in vitro with BirA (Avi tag)).
T4 construct: Heterodimer; UniProt Q8SPV9 (p51)
Kind of assay: BLI (Octet HTX), biotinylated FcRn on SA sensors, IgG titrated, steady state fit, apparent KD, pH 6.0; * deviation from fit model.
Excerpt: (§2) 0.5 nm of biotinylated human, cynomolgus, mouse and rat FcRn were captured on streptavidin (SA) sensors (FortéBIO, Pall Life Sciences). […] All sensorgrams were fitted using Data Analysis Software 10.0 (FortéBIO, Pall Life Sciences) to determine the apparent affinity and the data was fitted with a steady state model.

In assay [5] the target is T4, Cynomolgus FcRn p51 [1-297]_AviHis/p14 …. Kind of assay: BLI (Octet HTX), biotinylated FcRn on SA sensors, IgG titrated, steady state fit, apparent KD, pH 7.2; ** slight binding at pH 7.2.
Excerpt: as §2
The target of assay [6] is T5, C5aR expressed on purified human neutrophils (human, UniProt P21730 1-350).
T5 sequence (looked up): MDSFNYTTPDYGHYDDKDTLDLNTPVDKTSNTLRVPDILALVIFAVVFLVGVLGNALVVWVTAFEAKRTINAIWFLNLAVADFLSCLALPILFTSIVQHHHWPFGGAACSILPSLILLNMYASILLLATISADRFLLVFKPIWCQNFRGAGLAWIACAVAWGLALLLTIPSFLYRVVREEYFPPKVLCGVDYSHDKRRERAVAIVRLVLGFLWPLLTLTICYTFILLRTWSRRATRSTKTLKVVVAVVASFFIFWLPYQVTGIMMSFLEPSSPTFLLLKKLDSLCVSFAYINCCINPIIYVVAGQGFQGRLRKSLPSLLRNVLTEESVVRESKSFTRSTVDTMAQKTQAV
Kind of assay: cell-based or functional assay.

In assay [7] the target is T5, C5aR expressed on purified human …. Briefly: cell-based or functional assay. The source holds these as a separate data set.
Assay [8] deals with T6, full length human C5aR stably expressed on CHO Flp-In cells (human, UniProt P21730 1-350).
T6 construct: also called human C5aR expressed on CHO cells
T6 sequence: T5 sequence (looked up)
Briefly: KinExA, MAB #1 as analyte, Flp-In CHO cells as titrant, apparent (bivalent) KD, n-curve analysis.
Description: as §1

Assay [9] has as its target T1, HIS6-mouse C5aR-HV1B1-GAG. Briefly: ELISA, coated VLPs expressing mC5aR, IgG titration, AttoPhos fluorescence.

B1: MAB #2 (antibody, human IgG1, lambda)
heavy: EVQLVESGGGLVKPGGSLRLSCAASGFTFSSYAMHWVRQAPGKGLEWVGRIKSVAQGGTTDYAAHVKGRFTISRDDSKNTLYLQMNSLKTEDTAVYYCARVSHSTFDVWGQGTLVTVSSASTKGPSVFPLAPSSKSTSGGTAALGCLVKDYFPEPVTVSWNSGALTSGVHTFPAVLQSSGLYSLSSVVTVPSSSLGTQTYICNVNHKPSNTKVDKRVEPKSCDKTHTCPPCPAPEAEGAPSVFLFPPKPKDTLMISRTPEVTCVVVDVSHEDPEVKFNWYVDGVEVHNAKTKPREEQYNSTYRVVSVLTVLHQDWLNGKEYKCKVSNKALPSSIEKTISKAKGQPREPQVYTLPPSREEMTKNQVSLTCLVKGFYPSDIAVEWESNGQPENNYKTTPPVLDSDGSFFLYSKLTVDKSRWQQGNVFSCSVMHEALHNHYTQKSLSLSPGK
light: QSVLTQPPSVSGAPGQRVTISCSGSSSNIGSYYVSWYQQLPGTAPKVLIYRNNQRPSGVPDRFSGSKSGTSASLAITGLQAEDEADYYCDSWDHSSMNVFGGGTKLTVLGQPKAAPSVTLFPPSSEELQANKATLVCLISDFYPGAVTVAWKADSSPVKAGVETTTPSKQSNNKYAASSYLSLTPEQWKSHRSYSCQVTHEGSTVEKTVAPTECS
notes: lambda 1 light chain
As to B1, the binding result in assay [1] is given as “no binding”. For the same molecule, the “fold weaker binding affinity compared to MAB #1” value in assay [2] is approximately 10 fold.

B2: MAB #1 (antibody, human IgG1, lambda)
heavy: B1 heavy with V54K, H103F
light: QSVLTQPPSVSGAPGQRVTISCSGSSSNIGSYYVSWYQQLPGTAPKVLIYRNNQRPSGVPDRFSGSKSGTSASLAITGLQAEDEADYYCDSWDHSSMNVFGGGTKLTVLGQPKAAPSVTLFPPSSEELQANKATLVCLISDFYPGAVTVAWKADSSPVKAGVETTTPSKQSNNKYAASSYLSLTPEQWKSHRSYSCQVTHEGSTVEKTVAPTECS
notes: lambda 1 light chain, VH3-15 framework
Consider B2, for which the “fold weaker binding than to full-length human C5aR” value in [3] was approximately 20 fold. For the same molecule, the Kd in assay [4] came to 6.8 nM. For the same molecule, in assay [5], the Kd worked out at 560 nM. In assay [6], the “Inhibition of CD11b expression, granulocytes in whole blood, 15 nM C5a: IC50” value was 9.8 nM and the “Inhibition of CD11b expression, monocytes in whole blood, 15 nM C5a: IC50” value was 4.2 nM. Further, in [7], the “CD11b assay, granulocytes, 15 nM C5a, 20 minutes of IgG incubation: IC50” value came out at 11 nM; the “CD11b assay, granulocytes, 15 nM C5a, 300 minutes of IgG incubation: IC50” value amounted to 2.3 nM; the “CD11b assay, granulocytes: x-fold improvement (20 min. vs 300 min.)” value was 4.8 fold; the “CD11b assay, monocytes, 15 nM C5a, 20 minutes of IgG incubation: IC50” value turned out to be 4 nM. Further, in assay [7], the “CD11b assay, monocytes, 15 nM C5a, 300 minutes of IgG incubation: IC50” value was found to be 0.7 nM and the “CD11b assay, monocytes: x-fold improvement (20 min. vs 300 min.)” value stood at 5.7 fold. In assay [8], the Kd stood at 0.13 nM. Further, the binding result in assay [9] is reported as “no binding (tested: ~300 nM)”.
